Test results: PMC3832242

Molecular target: linked SSB dimer with the D. radiodurans linker (SSB-LD-Drl) (E. coli | D. radiodurans)
Assay: AUC

With “linked SSB dimer with the D. radiodurans linker (SSB-LD-Drl)” the stoichiometry N was 2.
